Results taken from publication PMC2978023.

Assays:
[1] = target: integrin αMβ2 on human PMNs (human (endogenous in PMNs)) (UniProt P11215)
[2] = target: recombinant purified β2 integrin subunit (UniProt P05107); test: ELISA
[3] = target: recombinant purified αM integrin subunit (UniProt P11215); test: ELISA
[4] = target: wild-type αMβ2 on transfected K562 cells (UniProt P11215); test: flow cytometry on cells
αM/αLβ2 chimera = αM/αLβ2 chimera (UniProt P05107); test: flow cytometry on cells
αMβ2(728Δ) = αMβ2(728Δ) (UniProt P11215); test: flow cytometry on cells
αM(1119Δ)β2 = αM(1119Δ)β2 (UniProt P11215); test: flow cytometry on cells
[5] = target: recombinant purified integrin αMβ2 (UniProt P11215); test: ELISA

Chain of Ang(1–4), angiostatin composed of four kringle domains of Plg (P00747 20-810): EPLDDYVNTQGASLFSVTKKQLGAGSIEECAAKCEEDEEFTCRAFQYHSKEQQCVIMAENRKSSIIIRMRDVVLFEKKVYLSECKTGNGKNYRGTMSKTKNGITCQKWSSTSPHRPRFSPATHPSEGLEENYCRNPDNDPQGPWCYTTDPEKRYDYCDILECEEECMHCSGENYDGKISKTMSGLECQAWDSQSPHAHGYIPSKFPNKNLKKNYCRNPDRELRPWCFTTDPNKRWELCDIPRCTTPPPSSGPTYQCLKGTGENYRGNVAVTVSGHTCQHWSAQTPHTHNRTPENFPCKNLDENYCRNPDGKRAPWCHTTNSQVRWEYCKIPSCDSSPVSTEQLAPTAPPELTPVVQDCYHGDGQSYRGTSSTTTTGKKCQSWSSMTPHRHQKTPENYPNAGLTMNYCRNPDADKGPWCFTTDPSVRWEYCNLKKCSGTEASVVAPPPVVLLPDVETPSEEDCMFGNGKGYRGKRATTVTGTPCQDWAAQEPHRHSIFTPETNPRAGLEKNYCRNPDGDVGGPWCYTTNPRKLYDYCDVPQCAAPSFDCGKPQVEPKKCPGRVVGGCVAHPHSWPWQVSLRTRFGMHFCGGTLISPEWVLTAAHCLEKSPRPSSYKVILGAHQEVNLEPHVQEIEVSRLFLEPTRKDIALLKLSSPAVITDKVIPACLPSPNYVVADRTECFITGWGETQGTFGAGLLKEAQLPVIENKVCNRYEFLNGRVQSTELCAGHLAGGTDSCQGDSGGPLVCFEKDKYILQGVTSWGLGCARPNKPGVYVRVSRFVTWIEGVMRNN

Substance	PMN early/late apoptosis (% annexin V+ cells), 16 h, Plg 1 μM with NIF (50 nM) [1]	Kd [2]	Kd [3]	MFI of bound ligand [4]	MFI of bound ligand (αM/αLβ2 chimera)	MFI of bound ligand (αMβ2(728Δ))	MFI of bound ligand (αM(1119Δ)β2)	Kd [5]
plasminogen (Glutamic Plg) (ligand)	90%	500 nM	100 nM	130 MFI	135 MFI	152 MFI	145 MFI	
human fibrinogen (from UniProt P02671-2 20-644; P02675 31-491; P02679-2 27-437) (complex)					129 MFI			
Ang(1–4), angiostatin composed of four kringle domains of Plg (from UniProt P00747 20-810) (domain or fragment)		> 100000 nM	400 nM					500 nM
